These results are taken from patent US20170037110A1 (IMMATICS BIOTECHNOLOGIES, published 2017).

Where only a bound is given, the exact number is not on record here.

The target of this experiment is T1, HLA-A*02:01 (human).
T1 construct: monomers captured on streptavidin plates; also called MHC class I
Put plainly: UV peptide exchange ELISA. In a few lines:
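Read-out is an ELISA on the UV-exchange reaction: monomers, diluted 100-fold, are captured on streptavidin and the β2m light chain is detected with 2 μg/ml HRP antibody and TMB at 450 nm.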
On the technique in general: An ELISA detects its analyte on a solid surface through an enzyme-linked reagent.

Molecule SLLELLHIYV yielded a peptide exchange yield of 50 to 75%.
As for ALNDQVFEI, the peptide exchange yield is 50 to 75%.
In turn, TMLLNIPLV registered a peptide exchange yield of 20 to 50%.
As for SLLEDKGLAEV, the figure is 20 to 50%; as for ILFANPNIFV, 50 to 75%.
Turning to QLLDETSAITL, the peptide exchange yield lay within 50 to 75%.
The figure for KVDTVWVNV is 50 to 75%; for KLLGKLPEL it is 50 to 75%.
Molecule KMLGIPISNILMV gave a peptide exchange yield of 50 to 75%.
For the molecule FLVTLNNVEV, the peptide exchange yield was no less than 75%.
For FLPEALDFV, the peptide exchange yield is 50 to 75%.
The figure for ALLDVTHSELTV is 50 to 75%; for FIDEAYVEV it is 20 to 50%.
ALDEYTSEL came in with a peptide exchange yield of no less than 75%.
As to ILADIVISA, the peptide exchange yield was 50 to 75%.
As for ALQNYIKEA, the figure is 20 to 50%.
For the molecule FLQAHLHTA, the peptide exchange yield was no less than 75%.
The figure for VLLDDIFAQL is 50 to 75%; for IMEGTLTRV it is 20 to 50%.
For the molecule HIYDKVMTV, the peptide exchange yield is 50 to 75%.
With YVYPQRLNFV, the peptide exchange yield lay in the range of 50 to 75%.
The molecule SLIPNLRNV showed a peptide exchange yield of 50 to 75%.
In the case of SLSDGLEEV, the peptide exchange yield is 20 to 50%.
SLQNHNHQL registered a peptide exchange yield of 50 to 75%.
The molecule HLLSELEAAPYL registered a peptide exchange yield of no less than 75%.
Take RLLDMGETDLML: the peptide exchange yield fell in the range of 50 to 75%.
ALLELAEEL gave a peptide exchange yield of 50 to 75%.
YLQDQHLLLTV returned a peptide exchange yield of 50 to 75%.
The figure for ALLSMTFPL is no less than 75%.
On to ALFQATAEV, for which the peptide exchange yield was no less than 75%.
LLDSKVPSV showed a peptide exchange yield of 50 to 75%.
In turn, YLFEMDSSL yielded a peptide exchange yield of 20 to 50%.
The figure for VIWKALIHL is 50 to 75%.
In turn, AMFESSQNVLL came in with a peptide exchange yield of 20 to 50%.
The figure for LLQNEQFEL is 50 to 75%; for ILLDVKTRL it is no less than 75%; for KVLDVSDLESV it is 20 to 50%.
Regarding ILFRYPLTI, the peptide exchange yield lay within 50 to 75%.
Molecule YLLPESVDL displayed a peptide exchange yield of 50 to 75%.
For ALYELEGTTV, the peptide exchange yield fell in the range of 50 to 75%.
ALLELENSVTL displayed a peptide exchange yield of 50 to 75%.
SIQQSIERLLV gave a peptide exchange yield of 20 to 50%.
In the case of TLIEDEIATI, the peptide exchange yield was in the range of 20 to 50%.
The figure for TLYGLSVLL is 50 to 75%.
FLLDSSASV yielded a peptide exchange yield of 20 to 50%.
In the case of ILLTAIVQV, the peptide exchange yield is 50 to 75%.
As for FLPDANSSV, the peptide exchange yield is 20 to 50%.
YSLSSVVTV yielded a peptide exchange yield of 50 to 75%.
As for YLISELEAA, the figure is 50 to 75%.
GLAPFTEGISFV returned a peptide exchange yield of 50 to 75%.
LILEGVDTV gave a peptide exchange yield of 20 to 50%.
SLLQDLVSV yielded a peptide exchange yield of 50 to 75%.
With SLFKHDPAAWEA, the peptide exchange yield was no less than 75%.
The molecule SLLEVNEESTV registered a peptide exchange yield of 50 to 75%.
Molecule YVIDQGETDVYV had a peptide exchange yield of 50 to 75%.
On to SLLEQGLVEA, for which the peptide exchange yield was in the range of 20 to 50%.
As for ALFMKQIYL, the figure is 50 to 75%; as for GLWEIENNPTVKA, no less than 75%; as for LLADVTHLL, 20 to 50%.
The figure for SQIALNEKLVNL is 50 to 75%; for SMHDLVLQV it is 50 to 75%; for QLALKVEGV it is 50 to 75%.
FLLQQHLISA had a peptide exchange yield of 20 to 50%.
As to GLFPEHLIDV, the peptide exchange yield is 50 to 75%.
FLPDEPYIKV showed a peptide exchange yield of 50 to 75%.
For ALGYFVPYV, the peptide exchange yield was 50 to 75%.
The figure for TLTKVLVAL is 50 to 75%.
